Assay results taken from the supplement of paper PMC12042874.
± gives the uncertainty stated by the source.

assay: amyloid nucleation score (Sup35N fusion, yeast selection) (log enrichment); library NNK2; higher = more nucleation; inactive = no reads after selection
Outline: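 Peptides of 20 random codons, each fused to Sup35N, were expressed in psi-negative yeast. Cells were induced with 100 μM copper sulfate for 24 hours and grown 7 days at 30°C on medium lacking adenine and uracil, and plasmid inserts before and after selection were Illumina-sequenced. Nucleation scores are DiMSum log enrichments of output over input reads, centred on the mode score of non-aggregating sequences, and sequences under 100 input reads were excluded.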

| Substance | amyloid nucleation score |
| --- | --- |
| TLYVVYLDEICYLLFKVSYC | 1.2 ± 0.66 |
| TMCWPMILK | -0.072 ± 0.27 |
| TMFGPH | 0.775 ± 0.74 |
| TMFTFIAANSRWLNAKIPWY | 0.157 ± 0.25 |
| TMGNHFVFVS | inactive |
| TMSGCSLLCWEYNASQDLSN | -0.071 ± 0.62 |
| TNGCALRSLNWLIVS | -0.44 ± 0.31 |
| TNGRCVELVMMYKYSLFVGD | 1.05 ± 0.61 |
| TNMIMLFIRMGLRHGDKWAW | 2.54 ± 0.19 |
| TNMPRWECSHGGRECGKGPA | 1.19 ± 0.18 |
| TNRGCSMKRRKSINPRILGM | inactive |
| TNRRILSFGVNL | -0.427 ± 0.78 |
| TNVLYMLWTFKVDERY | 5.964 ± 0.049 |
| TPNIGSSRVVMLSLQLLN | 6.955 ± 0.054 |
| TQFFFDFFE | 0.432 ± 0.4 |
| TQWSFGGYQRVGGLVVHAKR | 3.03 ± 0.17 |
| TQYFYIMLQ | 5.16 ± 0.071 |
| TRAHSED | 0.49 ± 0.32 |
| TRFTYCFVVRNLVTRNRPIS | -0.646 ± 0.22 |
| TRMCGMGTQGGLSRF | 0.257 ± 0.65 |
| TRPVNLDLIFISSG | 2.92 ± 0.098 |
| TRTGCDMGRRLVCS | 0.171 ± 0.35 |
| TRWLGGISMGNSVFVLIRTL | 0.416 ± 0.51 |
| TSARRQLDDQRAWPEMAN | 0.239 ± 0.62 |

| Substance | amyloid nucleation score |
| --- | --- |
| TSCGCTW | 0.092 ± 1.1 |
| TSDITAVFNSFLKFR | -0.744 ± 0.74 |
| TSGMYMCFLMLLVFCQLLNG | -1.21 ± 0.44 |
| TSGPLFAPPC | 0.402 ± 0.66 |
| TSGRLR | 1.67 ± 0.38 |
| TSGVTWQLACSVK | 4.2 ± 0.095 |
| TSHVGL | -1.39 ± 0.49 |
| TSKFSLRVFDLFSIYGYGHT | -0.125 ± 0.45 |
| TSLKYSVENTVASPVDRTWL | -0.055 ± 1.1 |
| TSPNFLSRLQVRYYRIRVSL | -0.026 ± 0.35 |
| TSRDFYRNAGIARFAYYNSP | -1.15 ± 0.23 |
| TSRDSRAL | -0.742 ± 1.1 |
| TSSQTHSR | -0.03 ± 0.63 |
| TSSTSRVDRACPGDSWPDID | -0.068 ± 0.42 |
| TSVLA | -1 ± 1.1 |
| TSVVNLNRMAFKTKFLQNTI | -1.1 ± 1.1 |
| TSYTLDYCGISMLKYFNSVD | 7.188 ± 0.062 |
| TTFTIWAYMVAHQYLEIGCI | inactive |
| TTGRKFMMIVTGGCGESGRF | -0.77 ± 0.42 |
| TTIFGNSATLDGIPHIIKRP | -0.268 ± 0.79 |
| TTLITVSVT | inactive |
| TTSRLRWKRSHHKW | 1.4 ± 0.29 |
| TTVERWVVFRKVQMRYRIRL | 5.396 ± 0.049 |
| TVATRHYNLNGQSWKKWAQ | 0.059 ± 0.23 |

| Substance | amyloid nucleation score |
| --- | --- |
| TVGVCGTLPGSASRHVYFRE | 0.286 ± 0.24 |
| TVHDYFDVQECVIDQCKGLP | 0.654 ± 0.57 |
| TVLVSRFDIIRHRCPTELKR | 0.153 ± 0.8 |
| TVNLGSYSEMRFLLLQEQAS | -0.747 ± 0.63 |
| TVREKDYIEDFGVIWRKGIY | 0.791 ± 0.81 |
| TVRVGAIVNSTHLVGTNSAF | -0.314 ± 0.34 |
| TVVVWA | 0.19 ± 0.31 |
| TVYGHRVGGRSFVL | 0.295 ± 0.28 |
| TVYYNQLSD | -0.982 ± 0.76 |
| TWHKFVSCDCGLH | 0.677 ± 0.47 |
| TWNLMNKVYIVPGLDPDTRS | 7.225 ± 0.055 |
| TWQEAHNSQLGGFSIPEKN | 0.155 ± 1.1 |
| TYADW | 0.902 ± 0.3 |
| TYCHYVADFLPLFRFRISGG | 3.1 ± 0.065 |
| TYFAEIMNTPLRPSARHEAR | 1.72 ± 0.33 |
| TYGCLFDSSIMSFQLSLDNF | -0.28 ± 0.49 |
| TYIRSVYDAFAC | inactive |
| TYKFLSVFIDEFGQDFIMIW | -1.11 ± 0.43 |
| TYLGNLYIMRFRAVLREPLV | 0.077 ± 0.8 |
| TYMCQYDSLLTKTMINNRRG | -0.611 ± 0.61 |
| TYMDNFFVSCGMLKQVYASV | -0.223 ± 0.16 |
| TYRIGYMNQCTSR | -0.215 ± 0.35 |
| TYYKRN | -0.4 ± 0.34 |
| VACVAHNTHYELTQQSYIYY | 5.609 ± 0.046 |
